# Assay results as given in paper PMC10272136, “Molecular mechanisms of Holliday junction branch migration catalyzed by an asymmetric RuvB hexamer” (Nature Communications, 2022).
# Several values for one entry are separate records, joined by “and”; a condition that tells them apart may be missing. Equal values may be shown once.
# T1: RuvB (Thermus thermophilus, UniProt Q5SL87 1-324)
# T1 sequence: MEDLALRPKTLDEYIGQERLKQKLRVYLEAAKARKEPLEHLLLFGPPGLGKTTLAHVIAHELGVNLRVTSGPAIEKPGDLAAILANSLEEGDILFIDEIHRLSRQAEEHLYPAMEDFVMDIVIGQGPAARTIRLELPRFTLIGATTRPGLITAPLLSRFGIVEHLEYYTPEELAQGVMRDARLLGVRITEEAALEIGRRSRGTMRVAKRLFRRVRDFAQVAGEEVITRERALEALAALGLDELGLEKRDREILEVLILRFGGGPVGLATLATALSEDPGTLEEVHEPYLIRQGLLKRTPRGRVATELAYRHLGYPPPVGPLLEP
# T2: RuvA (Thermus thermophilus, UniProt Q9F1Q3 1-191)
# T2 sequence: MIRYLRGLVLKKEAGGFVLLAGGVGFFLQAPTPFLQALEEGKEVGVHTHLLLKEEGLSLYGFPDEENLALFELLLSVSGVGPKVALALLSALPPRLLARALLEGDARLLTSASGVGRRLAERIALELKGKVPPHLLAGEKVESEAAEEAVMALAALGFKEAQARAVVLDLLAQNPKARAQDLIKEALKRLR
# Tests used:
# [1] = target: the molecule itself; assay: cryo-EM structure; sample of RuvA, RuvB and HJ DNA (6:4:1 RuvB:RuvA:HJ DNA); only a RuvA-HJ DNA structure was obtained; C4 symmetry, 4.3 Å
# RuvB = target: T1, RuvB; assay: gel filtration; 2 mM ATPgS, 10 mM MgCl2; DNA:RuvB monomer 1:6; 20 mM Tris-HCl pH 7.5, 10 mM MgCl2, 1 mM DTT, 2 mM ATPgS, 30 min at 37 C; gel filtration in 20 mM Tris-HCl, 150 mM NaCl; details: protein: recombinant; tags: N-terminal His tag (pET-28a, NdeI/SalI); chain copies: 6; four-way junction of 4 strands, 1 copy each
# RuvA = target: T2, RuvA; assay: cryo-EM structure; from RuvA-RuvB-HJ sample; RuvA tetramer binds HJ core; 20 mM Tris-HCl pH 7.5, 10 mM MgCl2, 1 mM DTT, 2 mM ATPgS, 30 min at 37 C; gel filtration in 20 mM Tris-HCl, 150 mM NaCl; details: protein: recombinant; tags: N-terminal His tag (pET-28a, NdeI/XhoI); chain copies: 4; four-way junction of 4 strands, 1 copy each
# [2] = target: the molecule itself; assay: cryo-EM structure; RuvB mixed with annealed HJ DNA at 1:6 (DNA/RuvB monomer) in 20 mM Tris-HCl pH 7.5, 10 mM MgCl2, 1 mM DTT, 2 mM ATP-γ-S, 30 min at 37 °C; complex purified by gel filtration; two maps (hexamer 2.97 Å, C1; dodecamer 3.2 Å, C2)
binder,measurement,setting,value
"Thermus thermophilus RuvA (natural protein, UniProt Q9F1Q3 1-191, looked up, source: E. coli BL21(DE3) RipL, purified (heat step at 55 °C, Ni-NTA, gel filtration)) MIRYLRGLVLKKEAGGFVLLAGGVGFFLQAPTPFLQALEEGKEVGVHTHLLLKEEGLSLYGFPDEENLALFELLLSVSGVGPKVALALLSALPPRLLARALLEGDARLLTSASGVGRRLAERIALELKGKVPPHLLAGEKVESEAAEEAVMALAALGFKEAQARAVVLDLLAQNPKARAQDLIKEALKRLR",stoichiometry N,[1],4
HJ DNA (HJ1-HJ4) (structured_DNA) DNA 1: AGAATCTGCCGAGAGACCGAGCAGAATTCTATGTGTTTACCAAGCGCTG DNA 2: CAGCGCTTGGTAAACACATAGAATTCTGCTCGGTCTGAGCCGTCTAAGA DNA 3: TCTTAGACGGCTCACTGGCTGTGGGATCCGAGCTGTCTAGAGACATCGA DNA 4: TCGATGTCTCTAGACAGCTCGGATCCCACAGCCAGTCTCGGCAGATTCT,binding result,RuvB,binds
same,binding result,RuvA,binds
"Thermus thermophilus RuvB (enzyme, UniProt Q5SL87 1-324, looked up, RuvB, Holliday junction branch migration ATPase (AAA+), Thermus thermophilus; printed MW 35,973; Purified RuvB carried endogenous ADP (native mass spectrometry); It forms the hexamer and dodecamer only in the sample with DNA and ATPγS; also called T. thermophilus RuvB; RuvB protomer; source: E. coli BL21(DE3) RipL, purified (heat step at 55 °C, Ni-NTA, Superdex 200 gel filtration)) MEDLALRPKTLDEYIGQERLKQKLRVYLEAAKARKEPLEHLLLFGPPGLGKTTLAHVIAHELGVNLRVTSGPAIEKPGDLAAILANSLEEGDILFIDEIHRLSRQAEEHLYPAMEDFVMDIVIGQGPAARTIRLELPRFTLIGATTRPGLITAPLLSRFGIVEHLEYYTPEELAQGVMRDARLLGVRITEEAALEIGRRSRGTMRVAKRLFRRVRDFAQVAGEEVITRERALEALAALGLDELGLEKRDREILEVLILRFGGGPVGLATLATALSEDPGTLEEVHEPYLIRQGLLKRTPRGRVATELAYRHLGYPPPVGPLLEP",stoichiometry N,[2],6 and 12
